The supplement of paper PMC10065799, “High-throughput profiling of sequence recognition by tyrosine kinases and SH2 domains using bacterial peptide display” (eLife, 2023)

Key:
MERTK = MERTK (UniProt Q12866); assay: phosphorylation enrichment, bacterial display (enrichment ratio); higher = better substrate or ligand; peptides without Tyr show the background
Hck = Hck (UniProt P08631); assay: as above
EPHB2 = EPHB2 (UniProt P29323); assay: as above
Fes = Fes (UniProt P07332); assay: as above
Jak2 = Jak2 (UniProt O60674); assay: as above
c-Abl (mouse) = assay: as above
FGFR1 = FGFR1 (UniProt P11362); assay: as above
Fer (mouse) = assay: as above
Fyn = Fyn (UniProt P06241); assay: as above
AncSZ = assay: as above
FGFR3 = FGFR3 (UniProt P22607); assay: as above
EPHB1 = EPHB1 (UniProt P54762); assay: as above
c-Src = assay: as above
Grb2 SH2 = Grb2 SH2 (UniProt P62993); assay: SH2 binding enrichment of the phosphorylated peptide, bacterial display (enrichment ratio); higher = better substrate or ligand; peptides without Tyr show the background
c-Src SH2 = assay: as above
SHP2-C SH2 = assay: as above
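Wherever SH2 binding enrichment of the phosphorylated peptide, bacterial display is given: peptide library displayed on the E. coli surface as eCPX fusions, selected cells deep-sequenced, score is each peptide's frequency after selection divided by its frequency in the input.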
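Wherever phosphorylation enrichment, bacterial display is given: 11-residue human phosphosite peptides and single-mutation variants displayed on the E. coli surface, counted by deep sequencing, each peptide's frequency after selection divided by its frequency in the unselected input library; frequency after pTyr selection over input frequency; kinase dosed for 20-30% of maximal phosphorylation in three min.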

Sequence of EPHB2 (P29323 whole entry, looked up): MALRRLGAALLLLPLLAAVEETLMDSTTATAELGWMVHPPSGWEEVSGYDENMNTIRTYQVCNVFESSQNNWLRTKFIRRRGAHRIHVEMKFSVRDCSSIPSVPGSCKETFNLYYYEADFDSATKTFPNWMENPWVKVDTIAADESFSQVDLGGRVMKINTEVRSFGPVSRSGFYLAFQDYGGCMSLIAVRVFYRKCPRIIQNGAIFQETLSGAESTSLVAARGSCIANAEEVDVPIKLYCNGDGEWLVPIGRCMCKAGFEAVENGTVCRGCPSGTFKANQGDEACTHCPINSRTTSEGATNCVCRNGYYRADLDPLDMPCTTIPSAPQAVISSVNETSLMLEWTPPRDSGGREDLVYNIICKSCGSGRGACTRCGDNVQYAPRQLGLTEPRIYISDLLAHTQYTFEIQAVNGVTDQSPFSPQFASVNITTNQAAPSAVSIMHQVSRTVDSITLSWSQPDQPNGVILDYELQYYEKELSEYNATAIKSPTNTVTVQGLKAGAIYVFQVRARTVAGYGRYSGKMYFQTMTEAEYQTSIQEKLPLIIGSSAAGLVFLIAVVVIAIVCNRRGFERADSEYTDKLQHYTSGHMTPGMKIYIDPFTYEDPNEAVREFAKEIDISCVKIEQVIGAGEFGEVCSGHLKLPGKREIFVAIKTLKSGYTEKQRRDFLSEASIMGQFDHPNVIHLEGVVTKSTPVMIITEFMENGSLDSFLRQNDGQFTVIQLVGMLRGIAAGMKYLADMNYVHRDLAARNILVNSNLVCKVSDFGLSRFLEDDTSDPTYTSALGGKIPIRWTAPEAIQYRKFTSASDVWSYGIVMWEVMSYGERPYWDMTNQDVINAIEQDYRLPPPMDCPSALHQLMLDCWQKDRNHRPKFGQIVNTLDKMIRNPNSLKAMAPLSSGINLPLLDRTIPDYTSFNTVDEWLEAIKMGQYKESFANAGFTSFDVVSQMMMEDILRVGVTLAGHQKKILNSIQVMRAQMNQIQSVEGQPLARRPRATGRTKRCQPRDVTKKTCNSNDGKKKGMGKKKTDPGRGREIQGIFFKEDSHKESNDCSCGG
Sequence of Grb2 SH2 (P62993 whole entry, looked up): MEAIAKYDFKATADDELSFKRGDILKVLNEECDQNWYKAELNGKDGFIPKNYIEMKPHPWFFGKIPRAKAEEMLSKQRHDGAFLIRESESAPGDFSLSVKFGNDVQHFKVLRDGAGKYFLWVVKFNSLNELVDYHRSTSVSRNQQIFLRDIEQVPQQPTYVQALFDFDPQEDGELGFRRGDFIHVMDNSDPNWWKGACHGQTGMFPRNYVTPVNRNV
Sequence of MERTK (Q12866 whole entry, looked up): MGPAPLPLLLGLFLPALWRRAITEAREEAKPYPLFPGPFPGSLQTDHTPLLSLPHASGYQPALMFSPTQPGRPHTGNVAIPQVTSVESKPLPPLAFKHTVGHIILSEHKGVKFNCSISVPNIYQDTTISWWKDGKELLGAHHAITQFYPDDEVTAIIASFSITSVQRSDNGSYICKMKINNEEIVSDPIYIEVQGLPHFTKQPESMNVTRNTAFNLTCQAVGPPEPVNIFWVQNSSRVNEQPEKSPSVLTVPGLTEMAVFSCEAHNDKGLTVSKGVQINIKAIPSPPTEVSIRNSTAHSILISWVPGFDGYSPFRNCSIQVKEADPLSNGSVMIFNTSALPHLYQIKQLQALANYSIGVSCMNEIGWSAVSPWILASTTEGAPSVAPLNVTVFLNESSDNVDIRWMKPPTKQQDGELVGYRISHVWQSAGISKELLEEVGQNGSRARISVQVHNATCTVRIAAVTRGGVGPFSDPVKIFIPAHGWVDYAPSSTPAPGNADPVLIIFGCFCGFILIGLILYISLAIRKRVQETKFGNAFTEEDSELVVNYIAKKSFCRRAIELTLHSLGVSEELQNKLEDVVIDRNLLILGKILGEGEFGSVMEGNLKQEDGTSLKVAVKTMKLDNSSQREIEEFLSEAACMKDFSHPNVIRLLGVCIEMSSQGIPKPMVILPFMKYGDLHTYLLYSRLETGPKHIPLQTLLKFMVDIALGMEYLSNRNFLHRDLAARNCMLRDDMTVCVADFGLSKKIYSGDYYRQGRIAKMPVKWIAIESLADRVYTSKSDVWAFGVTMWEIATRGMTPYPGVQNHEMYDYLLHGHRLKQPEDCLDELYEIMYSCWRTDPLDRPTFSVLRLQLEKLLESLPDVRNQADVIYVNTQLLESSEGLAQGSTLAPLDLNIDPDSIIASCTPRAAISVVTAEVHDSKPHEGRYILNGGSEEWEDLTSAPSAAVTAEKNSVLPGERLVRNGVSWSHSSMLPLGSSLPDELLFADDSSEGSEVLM
Sequence of Fyn (P06241 whole entry, looked up): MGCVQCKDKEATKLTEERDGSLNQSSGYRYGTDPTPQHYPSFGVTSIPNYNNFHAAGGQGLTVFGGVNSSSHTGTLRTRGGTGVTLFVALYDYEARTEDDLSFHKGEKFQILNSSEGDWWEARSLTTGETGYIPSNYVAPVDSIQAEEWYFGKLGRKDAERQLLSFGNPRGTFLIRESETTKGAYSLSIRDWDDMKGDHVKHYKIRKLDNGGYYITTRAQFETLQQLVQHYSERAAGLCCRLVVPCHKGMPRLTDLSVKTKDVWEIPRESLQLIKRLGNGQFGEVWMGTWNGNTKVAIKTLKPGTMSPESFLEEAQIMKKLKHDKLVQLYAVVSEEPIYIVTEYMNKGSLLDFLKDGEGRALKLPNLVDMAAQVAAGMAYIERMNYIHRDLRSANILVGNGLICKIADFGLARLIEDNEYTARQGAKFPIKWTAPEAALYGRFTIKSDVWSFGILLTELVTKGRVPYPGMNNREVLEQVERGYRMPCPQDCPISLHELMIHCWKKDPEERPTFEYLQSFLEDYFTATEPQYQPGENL
Sequence of Fes (P07332 whole entry, looked up): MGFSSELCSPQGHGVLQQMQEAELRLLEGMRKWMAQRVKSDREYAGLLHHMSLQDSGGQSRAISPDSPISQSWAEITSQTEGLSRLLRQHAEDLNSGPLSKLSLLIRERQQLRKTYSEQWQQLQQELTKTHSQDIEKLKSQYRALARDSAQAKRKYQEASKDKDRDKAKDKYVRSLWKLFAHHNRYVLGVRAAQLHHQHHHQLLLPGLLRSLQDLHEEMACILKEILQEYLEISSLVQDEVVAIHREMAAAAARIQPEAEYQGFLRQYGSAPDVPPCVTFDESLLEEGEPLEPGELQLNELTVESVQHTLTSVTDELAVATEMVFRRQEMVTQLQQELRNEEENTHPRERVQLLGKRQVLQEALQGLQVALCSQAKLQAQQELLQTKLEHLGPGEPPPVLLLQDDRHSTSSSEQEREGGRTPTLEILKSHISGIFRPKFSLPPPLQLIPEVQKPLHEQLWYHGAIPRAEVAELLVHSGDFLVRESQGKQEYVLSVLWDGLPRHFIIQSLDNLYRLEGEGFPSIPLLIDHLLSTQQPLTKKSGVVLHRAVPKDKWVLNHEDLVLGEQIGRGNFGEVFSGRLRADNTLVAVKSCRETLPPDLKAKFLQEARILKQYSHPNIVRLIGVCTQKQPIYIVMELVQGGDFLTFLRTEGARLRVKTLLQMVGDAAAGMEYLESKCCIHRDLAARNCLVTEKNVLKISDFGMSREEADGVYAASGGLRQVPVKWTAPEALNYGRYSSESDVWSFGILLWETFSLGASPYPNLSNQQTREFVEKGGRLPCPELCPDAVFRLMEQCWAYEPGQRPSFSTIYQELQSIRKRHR
Sequence of FGFR3 (P22607 whole entry, looked up): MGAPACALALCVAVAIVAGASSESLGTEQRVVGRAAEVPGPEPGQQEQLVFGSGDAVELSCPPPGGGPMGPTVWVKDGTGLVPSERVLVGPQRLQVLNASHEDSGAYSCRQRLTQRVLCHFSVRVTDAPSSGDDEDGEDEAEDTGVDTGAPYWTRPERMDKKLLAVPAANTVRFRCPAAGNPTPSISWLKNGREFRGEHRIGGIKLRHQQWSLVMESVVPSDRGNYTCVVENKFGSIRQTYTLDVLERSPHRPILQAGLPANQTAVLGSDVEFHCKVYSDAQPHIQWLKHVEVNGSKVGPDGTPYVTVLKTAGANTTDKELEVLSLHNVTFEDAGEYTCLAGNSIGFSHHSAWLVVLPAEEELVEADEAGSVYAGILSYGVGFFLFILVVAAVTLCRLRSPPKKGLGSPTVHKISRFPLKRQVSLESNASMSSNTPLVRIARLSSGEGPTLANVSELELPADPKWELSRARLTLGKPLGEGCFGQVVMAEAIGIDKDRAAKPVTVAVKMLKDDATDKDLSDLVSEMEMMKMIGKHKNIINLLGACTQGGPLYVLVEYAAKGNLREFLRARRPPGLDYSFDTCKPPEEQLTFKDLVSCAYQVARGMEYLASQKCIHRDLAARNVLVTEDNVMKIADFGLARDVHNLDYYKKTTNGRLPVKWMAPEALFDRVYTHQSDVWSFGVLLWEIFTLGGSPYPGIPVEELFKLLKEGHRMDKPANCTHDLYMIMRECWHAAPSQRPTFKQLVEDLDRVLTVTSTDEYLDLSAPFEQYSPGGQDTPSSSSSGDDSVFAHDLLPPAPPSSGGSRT
Sequence of Hck (P08631 whole entry, looked up): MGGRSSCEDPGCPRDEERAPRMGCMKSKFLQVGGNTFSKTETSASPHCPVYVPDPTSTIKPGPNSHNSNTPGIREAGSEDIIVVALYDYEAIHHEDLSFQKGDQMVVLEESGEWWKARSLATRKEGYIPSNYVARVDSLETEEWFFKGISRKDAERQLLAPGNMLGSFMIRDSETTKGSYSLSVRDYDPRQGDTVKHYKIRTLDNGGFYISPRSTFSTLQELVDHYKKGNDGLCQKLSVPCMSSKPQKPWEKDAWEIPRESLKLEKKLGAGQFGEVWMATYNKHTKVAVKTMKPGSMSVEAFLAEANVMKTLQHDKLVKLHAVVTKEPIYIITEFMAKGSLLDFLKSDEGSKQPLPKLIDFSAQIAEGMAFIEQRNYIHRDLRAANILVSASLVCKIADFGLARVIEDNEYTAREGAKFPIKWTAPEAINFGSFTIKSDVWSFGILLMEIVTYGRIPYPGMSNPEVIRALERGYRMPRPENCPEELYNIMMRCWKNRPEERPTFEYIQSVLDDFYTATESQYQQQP

Sequence | phosphorylation enrichment (MERTK) | phosphorylation enrichment (Hck) | phosphorylation enrichment (EPHB2) | phosphorylation enrichment (Fes) | phosphorylation enrichment (Jak2) | phosphorylation enrichment (c-Abl (mouse)) | phosphorylation enrichment (FGFR1) | phosphorylation enrichment (Fer (mouse)) | phosphorylation enrichment (Fyn) | phosphorylation enrichment (AncSZ) | phosphorylation enrichment (FGFR3) | phosphorylation enrichment (EPHB1) | phosphorylation enrichment (c-Src) | SH2 binding enrichment (Grb2 SH2) | SH2 binding enrichment (c-Src SH2) | SH2 binding enrichment (SHP2-C SH2)
KMTGRYEMFAR [UPB1_Y362_YF] | 0.633 | 0.505 | 0.556 | 0.815 | 0.586 | 0.571 | 0.499 | 0.438 | 0.386 | 0.808 | 0.53 | 0.496 | 0.451 | 1.36 | 1.75 | 1.07
KPPPTYESEEE [BRD4_Y599] | 0.552 | 0.641 | 0.711 | 1.88 | 1.39 | 1.18 | 0.618 | 0.753 | 0.664 | 1.65 | 0.775 | 0.653 | 0.767 | 0.977 | 0.728 | 0.719
KPVDTYFDSTR [DYNC2H1_Y2230_M2227V_YF] | 0.54 | 0.565 | 0.556 | 0.997 | 0.723 | 0.611 | 0.624 | 0.472 | 0.567 | 0.925 | 0.73 | 0.668 | 0.43 | 0.83 | 0.422 | 0.693
KQELVYPNKKL [OPTN_Y356_T357P] | 0.374 | 0.293 | 0.358 | 0.743 | 0.443 | 0.561 | 0.356 | 0.323 | 0.324 | 0.576 | 0.417 | 0.33 | 0.349 | 0.811 | 0.471 | 0.505
KQFWRYFAGNL [SLC25A4_Y112] | 0.542 | 0.449 | 0.53 | 1.03 | 1.04 | 0.764 | 0.461 | 0.488 | 0.32 | 0.944 | 0.598 | 0.777 | 0.507 | 1.09 | 0.899 | 0.972
KREPQYSSHSS [SIPA1L3_Y1265_G1261R] | 0.452 | 0.362 | 0.306 | 0.629 | 0.43 | 0.486 | 0.377 | 0.401 | 0.338 | 0.559 | 0.376 | 0.423 | 0.506 | 0.973 | 0.549 | 0.885
KSFDMYSGDVM [FAM3D_Y122_A118S] | 0.914 | 1.13 | 1.22 | 0.856 | 0.698 | 0.609 | 0.654 | 0.589 | 1.06 | 0.998 | 0.667 | 1.6 | 1.1 | 0.803 | 0.613 | 0.674
KTTILYKLKLG [ARF1_Y35] | 0.376 | 0.401 | 0.411 | 1 | 0.909 | 0.719 | 0.404 | 0.426 | 0.358 | 1.01 | 0.688 | 0.41 | 0.336 | 1.33 | 0.865 | 0.973
